One molecule from publication PMC10105285 (Cell reports, 2023) can be followed below.

The test addresses T1, FLAG-tagged human LMAN1, wild type (pED-FLAG-LMAN1) (human, UniProt P49257 31-510).
T1 sequence (looked up): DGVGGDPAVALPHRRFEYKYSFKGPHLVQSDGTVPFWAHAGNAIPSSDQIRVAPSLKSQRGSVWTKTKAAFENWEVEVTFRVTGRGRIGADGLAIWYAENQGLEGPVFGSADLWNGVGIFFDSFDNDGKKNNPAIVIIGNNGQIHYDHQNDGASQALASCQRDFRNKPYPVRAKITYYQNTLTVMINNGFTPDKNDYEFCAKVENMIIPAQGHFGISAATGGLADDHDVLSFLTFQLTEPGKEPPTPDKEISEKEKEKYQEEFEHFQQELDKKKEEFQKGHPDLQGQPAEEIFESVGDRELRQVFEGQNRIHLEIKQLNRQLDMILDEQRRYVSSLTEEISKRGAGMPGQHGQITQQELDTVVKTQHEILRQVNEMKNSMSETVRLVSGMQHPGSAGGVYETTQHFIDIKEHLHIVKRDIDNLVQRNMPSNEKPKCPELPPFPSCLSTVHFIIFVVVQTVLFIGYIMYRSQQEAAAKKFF
Description: flow cytometry on cells.

B1: Der p 1 (Dermatophagoides pteronyssinus major mite allergen 1), biotinylated (natural protein, UniProt P08176 99-320, looked up)
chain: TNACSINGNAPAEIDLRQMRTVTPIRMQGGCGSCWAFSGVAATESAYLAYRNQSLDLAEQELVDCASQHGCHGDTIPRGIEYIQHNGVVQESYYRYVAREQSCRRPNAQRFGISNYCQIYPPNVNKIREALAQTHSAIAVIIGIKDLDAFRHYDGRTIIQRDNGYQPNYHAVNIVGYSNAQGVDYWIVRNSWDTNWGDNGYGYFAANIDLMMIEEYPYVVIL
modifications: biotinylated
Turning to B1, the binding result is on record as “binds”.
